Test results from article PMC9250508 (2022).

Target: D614G RBD
Test: BLI

Binder	Kd [nM]	koff [s⁻¹]
AZD1061 Fab (Fab, V domains shown) VH: EVQLVESGGGLVKPGGSLRLSCAASGFTFRDVWMSWVRQAPGKGLEWVGRIKSKIDGGTTDYAAPVKGRFTISRDDSKNTLYLQMNSLKTEDTAVYYCTTAGSYYYDTVGPGLPEGKFDYWGQGTLVTVSS VL: not shown	14.5	0.00217
AZD8895 Fab (Fab, V domains shown) VH: QMQLVQSGPEVKKPGTSVKVSCKASGFTFMSSAVQWVRQARGQRLEWIGWIVIGSGNTNYAQKFQERVTITRDMSTSTAYMELSSLRSEDTAVYYCAAPYCSSISCNDGFDIWGQGTMVTVSS VL: not shown	9.79	0.00603
